Test results taken from article PMC6220335, “Molecular structure of promoter-bound yeast TFIID” (Nature Communications, 2018).
Values belong to the binder of their own block, whether it stands above or below them.

How the values were obtained:
Test in all cases: cross-linking; 50 µg purified TFIID, 3 mM BS3, 2 h at 25 °C; trypsin, SCX fractionation, Orbitrap Fusion MS; pLink and Nexus, 5% FDR
Settings in all cases: both partners purified
[1] = molecular target: T1, Taf8, subunit of Komagataella phaffii TFIID (Komagataella phaffii, UniProt F2QT15 1-517)
T1 construct: Taf8, TFIID subunit of the yeast Komagataella phaffii (formerly Pichia pastoris); putative helices placed in the cryo-EM map; also called KpTaf8; source: endogenous, K. phaffii nuclear extract; co-purified in TFIID by SBP-tagged Taf2 (streptavidin beads, sucrose gradient)
T1 sequence (looked up): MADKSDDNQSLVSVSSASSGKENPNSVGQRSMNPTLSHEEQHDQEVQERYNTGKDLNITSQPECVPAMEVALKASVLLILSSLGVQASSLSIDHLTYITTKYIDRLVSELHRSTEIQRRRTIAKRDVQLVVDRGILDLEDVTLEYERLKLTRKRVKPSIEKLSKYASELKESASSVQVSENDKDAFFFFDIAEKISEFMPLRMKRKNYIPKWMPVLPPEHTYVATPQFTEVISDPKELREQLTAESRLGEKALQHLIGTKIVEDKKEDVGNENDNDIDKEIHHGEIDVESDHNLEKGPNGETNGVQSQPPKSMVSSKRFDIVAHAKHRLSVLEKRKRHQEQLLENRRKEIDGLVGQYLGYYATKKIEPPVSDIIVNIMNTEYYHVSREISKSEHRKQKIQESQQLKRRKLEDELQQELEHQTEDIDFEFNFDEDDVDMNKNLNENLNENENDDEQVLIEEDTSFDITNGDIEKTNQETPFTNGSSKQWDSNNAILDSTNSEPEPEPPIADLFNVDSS

[2] = molecular target: T2, Taf11, subunit of Komagataella phaffii TFIID (Komagataella phaffii, UniProt F2QRB1 1-281)
T2 construct: Taf11, TFIID subunit of the yeast Komagataella phaffii (formerly Pichia pastoris); histone-fold domain modelled in the cryo-EM map; source: endogenous, K. phaffii nuclear extract; co-purified in TFIID by SBP-tagged Taf2 (streptavidin beads, sucrose gradient)
T2 sequence (looked up): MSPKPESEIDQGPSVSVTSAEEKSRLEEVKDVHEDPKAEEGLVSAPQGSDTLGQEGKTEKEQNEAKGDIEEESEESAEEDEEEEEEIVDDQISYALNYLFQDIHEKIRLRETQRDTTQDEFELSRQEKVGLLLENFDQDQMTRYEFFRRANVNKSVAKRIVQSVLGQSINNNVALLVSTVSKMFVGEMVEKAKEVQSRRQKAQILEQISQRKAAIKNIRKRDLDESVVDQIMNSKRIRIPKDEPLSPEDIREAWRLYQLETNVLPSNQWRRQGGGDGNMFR

[3] = molecular target: T3, Taf5, subunit of Komagataella phaffii TFIID (Komagataella phaffii, UniProt F2QWD3 1-722)
T3 construct: Taf5, TFIID subunit of the yeast Komagataella phaffii (formerly Pichia pastoris); WD40 repeat and NTD (residues 99–243) modelled in the cryo-EM map; two copies in holo-TFIID; source: endogenous, K. phaffii nuclear extract; co-purified in TFIID by SBP-tagged Taf2 (streptavidin beads, sucrose gradient)
T3 sequence (looked up): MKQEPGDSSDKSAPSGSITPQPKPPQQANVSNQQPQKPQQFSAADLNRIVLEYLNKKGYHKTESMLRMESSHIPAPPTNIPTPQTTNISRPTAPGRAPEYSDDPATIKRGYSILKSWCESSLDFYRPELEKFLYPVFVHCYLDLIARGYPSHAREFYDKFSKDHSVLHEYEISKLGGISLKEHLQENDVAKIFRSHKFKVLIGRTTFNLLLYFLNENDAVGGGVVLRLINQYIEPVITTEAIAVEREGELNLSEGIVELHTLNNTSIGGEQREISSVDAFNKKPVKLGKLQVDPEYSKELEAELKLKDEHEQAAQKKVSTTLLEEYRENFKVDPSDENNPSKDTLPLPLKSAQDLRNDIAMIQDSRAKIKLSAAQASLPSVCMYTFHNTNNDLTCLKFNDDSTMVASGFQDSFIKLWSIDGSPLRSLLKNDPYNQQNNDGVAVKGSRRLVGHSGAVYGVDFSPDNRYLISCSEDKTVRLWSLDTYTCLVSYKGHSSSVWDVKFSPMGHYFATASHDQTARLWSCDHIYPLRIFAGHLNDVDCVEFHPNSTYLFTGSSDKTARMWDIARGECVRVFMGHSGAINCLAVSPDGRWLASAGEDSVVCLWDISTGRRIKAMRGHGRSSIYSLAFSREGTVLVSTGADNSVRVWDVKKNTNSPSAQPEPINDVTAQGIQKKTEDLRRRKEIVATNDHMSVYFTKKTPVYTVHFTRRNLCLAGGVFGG

[4] = molecular target: T4, Taf1 (TBP-associated factor 1), subunit of Komagataella phaffii TFIID (Komagataella phaffii, UniProt F2QMX2 1-1010)
T4 construct: Taf1, TFIID subunit of the yeast Komagataella phaffii (formerly Pichia pastoris); native subunit of the purified complex; also called KpTaf1; source: endogenous, K. phaffii nuclear extract; co-purified in TFIID by SBP-tagged Taf2 (streptavidin beads, sucrose gradient)
T4 sequence (looked up): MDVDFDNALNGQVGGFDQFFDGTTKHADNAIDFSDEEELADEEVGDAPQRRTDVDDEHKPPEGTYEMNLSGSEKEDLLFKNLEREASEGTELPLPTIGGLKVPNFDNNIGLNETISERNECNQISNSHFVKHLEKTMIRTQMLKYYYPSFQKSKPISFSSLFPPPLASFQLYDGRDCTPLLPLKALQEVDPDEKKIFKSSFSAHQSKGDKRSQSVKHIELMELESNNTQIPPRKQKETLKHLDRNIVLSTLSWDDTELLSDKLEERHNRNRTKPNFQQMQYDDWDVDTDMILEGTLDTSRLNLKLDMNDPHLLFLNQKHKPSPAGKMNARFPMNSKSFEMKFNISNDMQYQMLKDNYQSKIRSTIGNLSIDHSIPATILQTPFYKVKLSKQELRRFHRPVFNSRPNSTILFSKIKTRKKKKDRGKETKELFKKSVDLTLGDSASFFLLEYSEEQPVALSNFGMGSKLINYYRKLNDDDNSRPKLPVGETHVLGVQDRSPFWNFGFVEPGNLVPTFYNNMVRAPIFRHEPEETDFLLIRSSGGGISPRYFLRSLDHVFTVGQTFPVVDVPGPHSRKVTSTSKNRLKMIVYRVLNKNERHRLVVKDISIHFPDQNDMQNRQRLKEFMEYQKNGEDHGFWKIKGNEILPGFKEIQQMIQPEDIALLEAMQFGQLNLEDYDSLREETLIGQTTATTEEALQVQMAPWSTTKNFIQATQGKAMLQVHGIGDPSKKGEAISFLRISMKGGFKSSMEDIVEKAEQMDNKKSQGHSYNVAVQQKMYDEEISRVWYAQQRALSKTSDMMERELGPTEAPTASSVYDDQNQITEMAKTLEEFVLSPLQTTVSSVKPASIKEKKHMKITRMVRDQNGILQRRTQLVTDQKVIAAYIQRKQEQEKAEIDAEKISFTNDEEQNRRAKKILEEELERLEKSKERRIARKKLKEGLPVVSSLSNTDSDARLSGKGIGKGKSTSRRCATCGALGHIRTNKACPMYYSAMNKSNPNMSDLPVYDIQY

[5] = molecular target: T5, Taf2 with C-terminal streptavidin-binding peptide tag, subunit of Komagataella phaffii TFIID (Komagataella phaffii, UniProt F2QRH9 1-1571)
T5 construct: Taf2, TFIID subunit of the yeast Komagataella phaffii (formerly Pichia pastoris); residues 36 to 1194 modelled in the cryo-EM map; bait of the purification; also called SBP-tagged Taf2; source: K. phaffii strain with SBP-tagged Taf2, nuclear extract; purified (streptavidin beads, biotin elution, sucrose gradient)

binding result [1]: binds
B1: Taf10, subunit of Komagataella phaffii TFIID (natural protein, UniProt F2QLJ9 1-217, looked up)
chain: MSTEKLFEDLDEDSLMQDVEGGVEGSMTIEEEPEPNDEKEAPHISMPSLPEYTRKDKTLEEILEMMEDEEFTPIIPDAVTDYYLAKNGFETSDIKIKRILALATQKFISDIAQDAYEYSRIRSSSSVYTSANPQARARQLVAGQQQQQQQQPQQQQQQQPQTGASQPAPTVGGSGGGGGGGGGTSTGTNNKVVLTMDDLRSALGEYGINVKRPNFYR
notes: Taf10, TFIID subunit of the yeast Komagataella phaffii (formerly Pichia pastoris); source: endogenous, K. phaffii nuclear extract; co-purified in TFIID by SBP-tagged Taf2 (streptavidin beads, sucrose gradient)

binding result [2]: binds
binding result [3]: binds
B2: Taf9, subunit of Komagataella phaffii TFIID (natural protein, UniProt F2QTW3 1-153, looked up)
chain: MTNEQAAIPRDVRLLHLIFATQNIYSYQDHVPLQLMDFAYRYTTGTLQDATIYSDHAHASGSHISNAGNAGTNAQLTTEDIRLAIAARTNYQFKPVPPKELLLELAAERNKKPLPAVIPTWGIRLPPEKYCLTGKDWVLEDEEEAVSYKKRKT
notes: Taf9, TFIID subunit of the yeast Komagataella phaffii (formerly Pichia pastoris); histone-fold domain modelled in the cryo-EM map; source: endogenous, K. phaffii nuclear extract; co-purified in TFIID by SBP-tagged Taf2 (streptavidin beads, sucrose gradient)

binding result [4]: binds
binding result [5]: binds
B3: Taf7, subunit of Komagataella phaffii TFIID (natural protein, UniProt F2QXR8 1-460, looked up)
chain: MIKLKLHTDKKQNTVERRPKIKVKPPINKPESTVIPRIRVKPTRIAGDGYDSEDPDREDDPTTEEAIVMRIVPNDYSLEYVKKCVEQGDFSEISLQWKDKRRAVLRLKDRLYGAKLVDLPTMVEIHKTIDRKNIFKTMDVSQILLVIKELKYESEYLDIQLTASETFDDGLTPPLRGVKKRFDKRMTSKVFQIIEEQVDELFRLDEEAEASKYELVDTEAGTIPSFDADASTPNTKEFTVRGHLDVEDNEDLELELEQAFQQQSDTPLNPQQRSKGGRKTNDSDAHVRFYEQEEEDDEDEETFELKRVCSAEAKVEEGEEEAEEETEETEDDEDDDDEEVVGGKEIISGQRAGIDERLTHTQIIKEEIEELQATIGLKQSDFNKASNPIMKNRISDVIGRLKAELETKLRQVEMEQKEQQNNSNVTSHNIYQQRELDEDEDEDDDEDGDEDDDDDMEDLF
notes: Taf7, TFIID subunit of the yeast Komagataella phaffii (formerly Pichia pastoris); source: endogenous, K. phaffii nuclear extract; co-purified in TFIID by SBP-tagged Taf2 (streptavidin beads, sucrose gradient)
